Data reported in paper PMC5587766, “Towards designer organelles by subverting the peroxisomal import pathway” (Nature Communications, 2017).
Numbering of substitutions follows the chain as printed. Where no end group is shown, it is not given here.

Experiments:
lissamine-YQSYY = experiment: fluorescence polarisation; fluorescence anisotropy; AtPEX5C or variant serially diluted (from a 40 µM solution) against 100 nM lissamine-labelled peptide tracer; 20 mM HEPES, 150 mM NaCl, pH 7.5; gelatine-blocked 384-well plates; 25 °C, 20 min; fitted to a 1:1 binding model
[1] = molecular target: endogenous PhypaPEX5 (Physcomitrella patens (endogenous in P. patens cells))
wild-type AtPEX5C = molecular target: T1, wild-type AtPEX5C (Arabidopsis thaliana, UniProt Q9FMA3); experiment: Pull down of binding peptides (Co-NTA, LC-MS), wild-type AtPEX5C; conditions: […] protein, 500 nM each peptide, pH 8.0, 4 °C, 1 h, semi-quantitative
T1 construct: made in house; host or cells: E. coli BL21-Gold (DE3)
T1 sequence (Q9FMA3 340-728): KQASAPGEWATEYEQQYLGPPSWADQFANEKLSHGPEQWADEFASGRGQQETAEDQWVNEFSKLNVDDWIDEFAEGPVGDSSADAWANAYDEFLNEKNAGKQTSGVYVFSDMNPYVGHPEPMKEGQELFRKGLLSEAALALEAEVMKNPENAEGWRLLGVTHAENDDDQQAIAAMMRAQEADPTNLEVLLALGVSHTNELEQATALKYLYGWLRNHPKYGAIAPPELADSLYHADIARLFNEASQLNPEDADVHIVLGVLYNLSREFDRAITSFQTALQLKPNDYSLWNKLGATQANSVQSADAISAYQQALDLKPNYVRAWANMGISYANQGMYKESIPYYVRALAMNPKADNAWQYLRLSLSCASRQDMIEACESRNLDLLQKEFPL
Source text: (§1) The chemical space that can be covered by all possible variants of the receptor and signal sequence is vast (e.g., combined randomization of the two C-terminal PTS1 residues and just six residues within AtPEX5C would result in a library size of 2.6 × 10^10 variants of peptide and protein), which makes the development of an assay for a PEX5*-PTS1* pair problematic. We reduced the dimensionality of this search by designing modifications to the PEX5 component and rapidly surveying which peptide sequences could be bound by each mutated receptor (Fig. 1a). Site-directed variants of a His6-tagged A. thaliana PEX5 PTS1-binding domain (residues 340–728, AtPEX5C)[16], selected by analysis of known crystal structures, were expressed in Escherichia coli. The purified proteins were incubated with a library of pentapeptides, representing known PTS1 and putative PTS1* sequences. After capture of the receptor-peptide complexes on cobalt affinity resin, the bound peptides were eluted and identified by liquid chromatography-mass spectrometry (LC-MS) analysis. […]
(§2) Each peptide sub-library was analyzed using the LC-MS method listed above and an identical chromatographic run in which the mass spectrometer provided automated MS/MS data, using collisional induced fragmentation in the quadrupole. […]

AtPEX5C D505H [2] = molecular target: T2, AtPEX5C D505H (Arabidopsis thaliana, UniProt Q9FMA3, D505H); experiment: Pull down of binding peptides (Co-NTA, LC-MS), AtPEX5C D505H; conditions: […] protein, 500 nM each peptide, pH 8.0, 4 °C, 1 h, semi-quantitative
T2 construct: made in house; host or cells: E. coli BL21-Gold (DE3)
T2 sequence (Q9FMA3 340-728 D505H): T1 sequence (Q9FMA3 340-728) with D166H
Source text: as §1, §2

AtPEX5C N601A [3] = molecular target: T3, AtPEX5C N601A (Arabidopsis thaliana, UniProt Q9FMA3, N601A); experiment: Pull down of binding peptides (Co-NTA, LC-MS), AtPEX5C N601A; conditions: […] protein, 500 nM each peptide, pH 8.0, 4 °C, 1 h, semi-quantitative
T3 construct: made in house; host or cells: E. coli BL21-Gold (DE3)
T3 sequence (Q9FMA3 340-728 N601A): T1 sequence (Q9FMA3 340-728) with N262A
Source text: as §1, §2

[4] = molecular target: T4, His6-tagged A. thaliana PEX5 PTS1-binding domain (residues 340-728), wild type (Arabidopsis thaliana, UniProt Q9FMA3 340-728); experiment: fluorescence polarisation; fluorescence anisotropy; AtPEX5C or variant serially diluted (from a 40 µM solution) against 100 nM lissamine-labelled peptide tracer; 20 mM HEPES, 150 mM NaCl, pH 7.5; gelatine-blocked 384-well plates; 25 °C, 20 min; fitted to a 1:1 binding model; conditions: both partners purified
T4 construct: Written 'His6-AtPEX5 (340-728)', in pET-28b; also called AtPEX5C; wild-type AtPEX5C; source: E. coli BL21-Gold (DE3), purified (Co-NTA)
T4 sequence (looked up): T1 sequence (Q9FMA3 340-728)

AtPEX5C D505H [5] = molecular target: T5, AtPEX5C D505H (Arabidopsis thaliana, UniProt Q9FMA3 340-728, D505H); experiment: as above; conditions: both partners purified
T5 construct: Made by site-directed mutagenesis of His6-AtPEX5 (340-728) in pET-28b; also called D505H variant of AtPEX5C; source: E. coli BL21-Gold (DE3), purified (Co-NTA)
T5 sequence (looked up): T1 sequence (Q9FMA3 340-728) with D166H

AtPEX5C N601A [6] = molecular target: T6, AtPEX5C N601A (Arabidopsis thaliana, UniProt Q9FMA3 340-728, N601A); experiment: as above; conditions: both partners purified
T6 construct: Made by site-directed mutagenesis of His6-AtPEX5 (340-728) in pET-28b; also called N601A variant; source: E. coli BL21-Gold (DE3), purified (Co-NTA)
T6 sequence (looked up): T1 sequence (Q9FMA3 340-728) with N262A

AtPEX5C D505H-N601A = molecular target: T7, AtPEX5C D505H-N601A (Arabidopsis thaliana, UniProt Q9FMA3 340-728, D505H | N601A); experiment: as above; conditions: both partners purified
T7 construct: Made by site-directed mutagenesis of His6-AtPEX5 (340-728) in pET-28b; source: E. coli BL21-Gold (DE3), purified (Co-NTA)
T7 sequence (looked up): T1 sequence (Q9FMA3 340-728) with D166H, N262A

[7] = molecular target: T8, AtPEX5C D505H-D507T-N601A (Arabidopsis thaliana, UniProt Q9FMA3 340-728, D505H | D507T | N601A); experiment: as above; conditions: both partners purified
T8 construct: Made by site-directed mutagenesis of His6-AtPEX5 (340-728) in pET-28b; source: E. coli BL21-Gold (DE3), purified (Co-NTA)
T8 sequence (looked up): T1 sequence (Q9FMA3 340-728) with D166H, D168T, N262A

Molecule: His6-tagged A. thaliana PEX5 PTS1-binding domain (residues 340-728), wild type (from UniProt Q9FMA3 340-728) (domain or fragment)
- Kd (lissamine-YQSYY): 2700 nM

Molecule: RFP-PTS1
- peroxisomal import: localisation score (1-5) of RFP-PTS1 in P. patens cells expressing PEX5* without GFP-PTS1* (score (scale 1-5)) [1]: 4.32

Molecule: dansyl-YQSFY [member of dansyl-YQSXX pentapeptide library]
- pulled down from library (wild-type AtPEX5C): not pulled down
- pulled down from library (AtPEX5C D505H [2]): bound
- pulled down from library (AtPEX5C N601A [3]): bound

Molecule: dansyl-YQSYY [member of dansyl-YQSXX pentapeptide library]
- pulled down from library (wild-type AtPEX5C): not pulled down
- pulled down from library (AtPEX5C D505H [2]): bound
- pulled down from library (AtPEX5C N601A [3]): bound

B1: lissamine-YQSKL (peptide)
peptide: {lissamine rhodamine B sulfonyl}-YQSKL
notes: model PTS1 pentapeptide; also called lissamine-labelled YQSKL; model PTS1 peptide; source: synthetic peptide (Fmoc solid-phase synthesis, reverse phase HPLC)
- Kd [4]: 1.1 nM
- Kd (AtPEX5C D505H [5]): 30 nM
- Kd (AtPEX5C N601A [6]): 22 nM
- Kd (AtPEX5C D505H-N601A): 108 nM
- Kd [7]: 97 nM

B2: lissamine-YQSYY (peptide)
peptide: {lissamine rhodamine B sulfonyl}-YQSYY
notes: pentapeptide found in the YQSXX library screen; also called lissamine-labelled YQSYY; source: synthetic peptide (Fmoc solid-phase synthesis, reverse phase HPLC)
- Kd (AtPEX5C D505H [5]): 960 nM
- Kd (AtPEX5C N601A [6]): 2300 nM
- Kd (AtPEX5C D505H-N601A): 603 nM
- Kd [7]: 110 nM
